The record followed here is patent US20240034796A1 (GENUV, published 2024).

The target of one assay is human BTLA protein (human, UniProt Q7Z6A9 31-157, limits assumed). The assay is described as follows: protein-based ELISA, coated human BTLA, hybridoma supernatant. As to the method:
(§1) Human PD-1, CD28, CTLA-4, ICOS, and BTLA proteins were coated in 96-well plates (Nunc) overnight at 4° C. […] After washing, a secondary antibody was added and incubated at 37° C. for 2 hours. […] After washing, TMB substrate (abcam) was added, and the color reaction was stopped with STOP solution (abcam). Absorbance at 450/650 nm was measured using a microplate reader (ThermoFisher).
A general note: An ELISA detects its analyte on a solid surface through an enzyme-linked reagent.

Assay [1] has as its target T1, human PD-1 expressed on CHO-S cells (human, UniProt Q15116 25-288).
T1 construct: CHO-S cells transfected with pCMV3-C-FLAG vector (Sino) holding human PD-1 cDNA; also called cell surface human PD-1; hPD-1
Briefly: cell-based ELISA on CHO-S cells expressing human PD-1; EC50 against Keytruda and Opdivo. The method, then: (§2) To summarize the ELISA analysis, 10,000 CHO-S cells expressing either human PD-1 or mouse PD-1 were coated in a collagen-coated 96-well plate (Thermo scientific) overnight in an incubator at 37° C. The coated cells were fixed with 8% paraformaldehyde at room temperature for 15 minutes.
(§3) After washing, a secondary antibody was added and incubated overnight at 4° C. […] After washing, TMB substrate (abcam) was added, and the color reaction was stopped with STOP solution (abcam). Absorbance at 450/650 nm was measured using a microplate reader (ThermoFisher).

Assay [2] concerns the target T1, human PD-1 expressed on CHO-S cells. Briefly: cell-based ELISA on fixed CHO-S cells expressing human PD-1, hybridoma supernatant. The method, then:
(§4) To summarize the ELISA assay, 10,000 CHO-S cells expressing human or mouse PD-1 were coated in collagen-coated 96-well plates (ThermoFisher) overnight at 37° C. The coated cells were fixed with 8% paraformaldehyde at room temperature for 15 minutes. […] After washing, secondary antibody was added and incubated overnight at 4° C. […] After washing, TMB substrate (abcam) was added, and the color reaction was stopped with STOP solution (abcam). Absorbance at 450/650 nm was measured using a microplate reader (ThermoFisher).

The target of the next assay is T2, human ICOS protein (human, UniProt Q9Y6W8 21-140).
T2 sequence (looked up): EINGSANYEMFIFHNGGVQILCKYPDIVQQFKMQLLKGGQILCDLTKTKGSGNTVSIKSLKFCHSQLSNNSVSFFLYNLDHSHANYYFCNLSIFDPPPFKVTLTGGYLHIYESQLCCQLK
Briefly: protein-based ELISA, coated human ICOS, hybridoma supernatant. As to the method: as §1

Assay [3] deals with T3, mouse PD-1 expressed on CHO-S cells (mouse, UniProt Q02242 25-288).
T3 construct: whole, on cells; also called cell surface mouse PD-1; mPD-1
T3 sequence (looked up): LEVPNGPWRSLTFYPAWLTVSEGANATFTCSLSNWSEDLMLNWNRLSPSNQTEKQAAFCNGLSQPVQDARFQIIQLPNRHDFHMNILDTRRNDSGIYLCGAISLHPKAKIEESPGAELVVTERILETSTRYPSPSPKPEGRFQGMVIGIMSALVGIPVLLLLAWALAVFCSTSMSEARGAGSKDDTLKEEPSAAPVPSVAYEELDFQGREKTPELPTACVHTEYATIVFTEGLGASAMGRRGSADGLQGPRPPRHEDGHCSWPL
The assay is described as follows: cell-based ELISA on CHO-S cells expressing mouse PD-1. The method, then: as §2, §3

For another assay, the target named is human CTLA-4 protein (human, UniProt P16410 36-161). The assay is described as follows: protein-based ELISA, coated human CTLA-4, hybridoma supernatant. The method, then:
as §1

Assay [4] has as its target T1, human PD-1 expressed on CHO-S cells. The assay is described as follows: cell-based ELISA on CHO-S cells expressing human PD-1. As to the method:
as §2, §3

The next assay addresses human CD28 protein (human, UniProt P10747 19-152). Briefly: protein-based ELISA, coated human CD28, hybridoma supernatant. The method, then:
as §1

The target of assay [5] is T3, mouse PD-1 expressed on CHO-S cells. The assay is described as follows: cell-based ELISA on fixed CHO-S cells expressing mouse PD-1, hybridoma supernatant. The method, then:
as §4

In another assay the target is T4, human PD-1 protein (human, UniProt Q15116 25-167, limits assumed).
T4 construct: also called human PD-1 antigen
T4 sequence (Q15116 25-167 limits assumed): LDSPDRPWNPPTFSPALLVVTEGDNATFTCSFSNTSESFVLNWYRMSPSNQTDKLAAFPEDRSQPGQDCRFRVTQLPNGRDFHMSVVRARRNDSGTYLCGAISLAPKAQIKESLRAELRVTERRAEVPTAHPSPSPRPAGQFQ
Briefly: SPR, Biacore 8K, antibody captured by anti-human IgG on CM5, human PD-1 as analyte. The method, then:
Anti-human IgG antibody was immobilized on a CM5 chip (Cytiva) via amine coupling. […] Human PD-1 and running buffer at a concentration of 0-100 nM (0, 6.25, 12.5, 25, 50, 100 nM) were flowed onto the sensor chip at a flow rate of 30 μl/min for an association phase of 120 s, which was followed by a dissociation phase of 900 s. The chip was regenerated with glycine at pH 1.5 after each experiment. Association and dissociation curves were drawn using Cytiva evaluation software, and kinetics and affinity values were determined.
Background: Surface plasmon resonance follows binding to a sensor surface in real time, without labels.

Assay [6] deals with T5, human PD-1 with L128 mutated to alanine (human, UniProt Q15116 25-288, limits assumed).
T5 construct: Alanine scanning mutant, expressed and analysed by high-throughput flow cytometry; the construct is not described further
T5 sequence (Q15116 other isoform, or with tags, fused parts or gaps limits assumed, change not shown): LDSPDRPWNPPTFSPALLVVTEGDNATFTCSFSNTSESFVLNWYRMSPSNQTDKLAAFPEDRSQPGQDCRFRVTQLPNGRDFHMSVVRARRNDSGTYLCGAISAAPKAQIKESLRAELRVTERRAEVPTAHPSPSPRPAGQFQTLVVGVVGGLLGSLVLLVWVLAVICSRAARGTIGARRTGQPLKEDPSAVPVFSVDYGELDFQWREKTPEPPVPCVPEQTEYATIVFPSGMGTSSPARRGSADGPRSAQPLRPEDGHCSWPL
The assay is described as follows: alanine scanning, high-throughput flow cytometry. The text has this: (§5) Selected amino acid residues of PD-1 were mutated to alanine using PCR mutagenesis.
(In flow cytometry, cells or beads pass a laser one at a time.)

The target of assay [7] is T6, human PD-1 with P130 mutated to alanine (human, UniProt Q15116 25-288, limits assumed).
T6 construct: Alanine scanning mutant, expressed and analysed by high-throughput flow cytometry; the construct is not described further
T6 sequence (Q15116 other isoform, or with tags, fused parts or gaps limits assumed, change not shown): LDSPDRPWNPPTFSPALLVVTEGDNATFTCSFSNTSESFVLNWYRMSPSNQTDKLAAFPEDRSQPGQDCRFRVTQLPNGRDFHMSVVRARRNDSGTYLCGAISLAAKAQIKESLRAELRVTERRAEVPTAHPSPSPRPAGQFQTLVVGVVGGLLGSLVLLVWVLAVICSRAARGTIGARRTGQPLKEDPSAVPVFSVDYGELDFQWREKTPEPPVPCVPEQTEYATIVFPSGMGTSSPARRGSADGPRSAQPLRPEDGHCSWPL
Briefly: alanine scanning, high-throughput flow cytometry.
Source text: as §5

Assay [8] addresses T7, human PD-1 with I126 mutated to alanine (human, UniProt Q15116 25-288, limits assumed).
T7 construct: Alanine scanning mutant, expressed and analysed by high-throughput flow cytometry; the construct is not described further
Briefly: alanine scanning, high-throughput flow cytometry.
Source text: as §5

T1 sequence (Q15116 25-288 limits assumed): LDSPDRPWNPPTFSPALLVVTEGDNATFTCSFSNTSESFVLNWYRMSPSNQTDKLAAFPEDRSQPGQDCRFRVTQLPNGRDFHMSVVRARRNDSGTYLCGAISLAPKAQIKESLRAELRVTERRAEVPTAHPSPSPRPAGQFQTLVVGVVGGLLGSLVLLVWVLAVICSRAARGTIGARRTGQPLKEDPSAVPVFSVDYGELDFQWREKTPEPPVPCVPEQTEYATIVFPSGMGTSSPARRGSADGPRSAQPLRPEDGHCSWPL
human CTLA-4 protein, sequence (P16410 36-161 limits assumed): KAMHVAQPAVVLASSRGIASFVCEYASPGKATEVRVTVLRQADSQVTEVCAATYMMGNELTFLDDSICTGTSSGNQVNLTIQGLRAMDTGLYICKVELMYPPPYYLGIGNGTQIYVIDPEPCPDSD
T7 sequence (Q15116 other isoform, or with tags, fused parts or gaps limits assumed, change not shown): as the sequence (Q15116 25-288 limits assumed) above, with I102A counted along it

B1: hybridoma 1G1 antibody (antibody, V domains shown)
VH: EVQLQQSGAELVKPGASVKLSCKASGYTFTGYWMHWVKQRPGQGLEWIGMIHPNSDTTTYNEKFKNRATLTVDKSSGTAYMQLSSLTSEDSAVYYCTGTDQAAWFAFWGQGTLVTVSA
VL: DIVLTQTPLSLPVSLGDQASISCRSSQNIVHSNGDTYLEWYLQKPGQSPKLLIYKVSKRFSGVPDRFSGSGSGTDFTLKISRVEAEDLGVYYCFQGSHVPWTFGGGTKLEIK
notes: Mouse antibody from the hybridoma, used as culture supernatant or Protein G purified; IgG1 reverse primer used for VH); also called 1G1 hybridoma antibody; monoclonal cell (hybridoma) 1G1 antibody
In general, EC50 (read off the curve) refers to the midpoint of the concentration-response curve. Read a low EC50 (read off the curve) as higher potency in that assay. The EC50 is the midpoint of the concentration-response curve. A low value points to greater potency. Consider B1, for which the binding result with human BTLA protein, with human ICOS protein, with human CTLA-4 protein and in the assay with human CD28 protein was “no binding” each time. Moreover, the “fold improved binding activity compared to Keytruda and Opdivo” value in assay [1] is around 5 fold. Further, the “EC50 (read off the curve)” value in assay [2] and in [5] was around 0.01 µg/mL each time. Besides, the values for the EC50 in [3] and in assay [4] were 0.0317 nM and 0.0281 nM, respectively.

B2: chimeric 1G1 antibody (antibody, human IgG4 S228P, kappa, V domains shown)
VH: B1 VH
VL: DIVLTQTPLSLPVSLGDQASISCRSSQNIVHSNGDTYLEWYLQKPGQSPKLLIYKVSKRFSGVPDRFSGSGSGTDFTLKISRVEAEDLGVYYCFQGSHVPWTFGGGTKLEIKR
notes: signal peptide not part of the entries; also called 1G1 chimeric; 1G1-chimeric
Broadly, the Kd is the free concentration of one partner at which half of the binding sites on the other are occupied at equilibrium, for simple one-to-one binding. The low end stands for higher affinity, the high end for lower affinity. One may read the koff as the first-order rate constant of dissociation. A high value points to fast dissociation. Broadly, the kon is a measure of how fast the partners come together. Read a low kon as slow association. With B2, in the assay with human PD-1 protein, binding was characterised by a dissociation constant (Kd) of 3.35 nM, the koff was 0.000749 s⁻¹ and the kon was 223000 M⁻¹ s⁻¹. Further, the “binding activity relative to the wild-type antigen” value in [6] is at most 50%. Further, the “binding activity relative to the wild-type antigen” value in [7] was at most 50%. Besides, in [8], the “binding activity relative to the wild-type antigen” value was at most 50%.
